# The supplement of paper PMC10201428
# ± gives the standard deviation of the averaged measurements.
# System: VchCAST RNA-guided transposition machinery (E. coli BL21(DE3) host, lacZ target)
# Experiment: relative integration efficiency (T-RL orientation) vs wild-type transposon end (log2 (normalized fold change)); transposon end mutated: right end (5 bp flank + 75 bp right end); higher = more efficient transposition
# Procedure, shortened: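 Relative integration efficiency is a fold change of output over input barcode abundance, normalised to reference barcodes and log-transformed. Input plasmids and genomic integration junctions were PCR-amplified and Illumina-sequenced from E. coli BL21(DE3) co-transformed with a T7-driven effector plasmid and pUC57 donor pools of 1549 left-end or 1849 right-end transposon variants. Plating was done with 0.1 mM IPTG at 37°C for 18 h, with two biological output replicates and four reference barcodes.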
row,Sequence,relative integration efficiency (log2)
1,ACATTTGTTGATACACCCATAAATTGATAATTACACCCATAAATTGATAATTATCAGTGGGTATTTAACTATAACGCTCTGATCATAGTCAGACCAACATTGCTACGACCCGTATTCGCACCGACAC,-0.394 ± 0.0092
2,ACATTTGTTCATACAACCATAAAATGATAATTCACCCATCAATTGATAATTATCACACCCCAATTTAACTATAACGCTCTGATCATAGTCAGACCAACATTGCTACGACCCGTATTCGCACCGACAC,-4.48 ± 0.28
3,ACATTTGTTGATACAACCATAAAAGGATCATTACACCCATAAATTGATAATTATCCCACCCCATTTAACTATAACGCTCTGATCATAGTCAGACCAACATTGCTACGACCCGTATTCGCACCGACAC,-2.12 ± 0.38
4,ACATTTGTTGATACAACCATAAAAGGATAATTACCCCCATCAATTGATAATTATCCCACCCCATTTAACTATAACGCTCTGATCATAGTCAGACCAACATTGCTACGACCCGTATTCGCACCGACAC,-2.87 ± 0.26
5,ACATTTGTTGATACAACCATAAAATGATAATTACACCCATAAATTGATAATTATCACACCCATAAATTGATATTGCCTCTTCATGGTCTAAACTTCAGTAAGTTTACGACATTTTCAGCACCGACAC,-0.93 ± 0.4
6,ACATTTGTTGATACACCCATAAATTGATATTGCCACCCATAAATTGATATTGCTCACACCCATAAATTGATAATTACTCTGATCATAGTCAGACCAACATTGCTACGACCCGTATTCGCACCGACAC,-1.21 ± 0.15
7,ACATTTGTTGATACAACCATAAAAGGATCATTACCCCCATAAATTGATAATTATCCCACCCCATTTAACTATAACGCTCTGATCATAGTCAGACCAACATTGCTACGACCCGTATTCGCACCGACAC,-2.25 ± 0.25
8,ACATTTGTTGATACAACCATAAAATGATAATTAATAATTATTCACCCATAAATTGATAATTATCAACAAACGCCCGGTCGCGGTACTCTGATCATAGTCAGACCAACATTGCTACGACCCGTATTCG,-2.63 ± 0.4
9,ACATTTGTTGATAAAACCATACGTTGATTTTACCACCCATAAATTGATAATTATCACACCCATAAATTGATATTGCCTCTGATCATAGTCAGACCAACATTGCTACGACCCGTATTCGCACCGACAC,-2.65 ± 0.17
10,ACATTTGTTGATACAACCATAAAATGATAATTAATAATTATTTCACCCATAAATTGATAATTATCACACCCATAAATTGATATTGCCTCTGATCATAGTCAGACCAACATTGCTACGACCCGTATTC,-3.8 ± 0.49
11,ACATTTGTTGATACAACCATAACCGTATAATTACACCCATAAATTGATAATTATCACACCCATAAATTGATATTGCCTCTGATCATAGTCAGACCAACATTGCTACGACCCGTATTCGCACCGACAC,-1.41 ± 0.21
12,ACATTTGTTGATACAACCATCCCCTGATAATTACACCCATCCCGTGATAATTATCACACCCATCCCGTGATATTGCCTCTGATCATAGTCAGACCAACATTGCTACGACCCGTATTCGCACCGACAC,-5.99 ± 0.12
13,ACATTTGTTGATACACCCATAAATTGATAATTACAACCATATATTGATATCTCTCACAACCATATATTGATATCTCCTCTGATCATAGTCAGACCAACATTGCTACGACCCGTATTCGCACCGACAC,-0.949 ± 0.26
14,ACATTTGTTGATACAACCATAAACTGATAATTACACCCATAAAGTGATAATTATCACACCCATAAAGTGATATTGCCTCTGATCATAGTCAGACCAACATTGCTACGACCCGTATTCGCACCGACAC,0.368 ± 0.095
15,ACATTTGTTGATACCACCATAAAATGATAATTACACCCATACATTGATAATTATCACACCCAATTTAACTATAACGCTCTGATCATAGTCAGACCAACATTGCTACGACCCGTATTCGCACCGACAC,-2.1 ± 0.38
16,ACATTTGTTGATAACCACATAAAATGATAATTACACCCATAAATTGATAATTATCACACCCATAAATTGATATTGCCTCTGATCATAGTCAGACCAACATTGCTACGACCCGTATTCGCACCGACAC,-0.808 ± 0.095

row,Sequence,relative integration efficiency (log2)
1,ACATTGGTCGATACAACCATAAAATGATAATTACACCCATAAATTCATCATTATCACACCCAATTTAACTATAACGCTCTGATCATAGTCAGACCAACATTGCTACGACCCGTATTCGCACCGACAC,-7.035 ± 0.062
2,ACATTTGTTGATACAACCATAAAGTGATATTTACAACCATAAAATGATAATTATCACAACCATAAGTTGATATTTTCTCTGATCATAGTCAGACCAACATTGCTACGACCCGTATTCGCACCGACAC,0.113 ± 0.034
3,ACATTTGTTGATACAACCATAAAATGATAATTACACCCATAAATTGATAATTATCACACCGTATAATTGATATTGCCTCTGATCATAGTCAGACCAACATTGCTACGACCCGTATTCGCACCGACAC,-0.648 ± 0.21
4,ACATTTGTTCATACAACCATAAAATGATAATTACACCCATAAATTCATAATTATCACCCCCAATTTAACTATAACGCTCTGATCATAGTCAGACCAACATTGCTACGACCCGTATTCGCACCGACAC,-1.62 ± 0.43
5,ACATTTGTTGATACACCCATAAATTGATATTGCCAACCATAAAATGATAATTATCAGTGGGTATTTAACTATAACGCTCTGATCATAGTCAGACCAACATTGCTACGACCCGTATTCGCACCGACAC,-1.21 ± 0.35
6,ACATTTGTGGATACAACCATAAAATGATAATTACACCCATAAATTTATAATTATCACACCCAATTTAACTATAACGCTCTGATCATAGTCAGACCAACATTGCTACGACCCGTATTCGCACCGACAC,-1.09 ± 0.41
7,ACATTTGTTGATACAACCATAAAATGATAATTACACCCATAAATTGATAATATTCACACCCATAAATTGATATTGCCTCTGATCATAGTCAGACCAACATTGCTACGACCCGTATTCGCACCGACAC,-0.274 ± 0.23
8,ACATTTGTTGATACAACCATCAAATGGTAATTACACCCATACATTGATAATTATCACACCCAATTTAACTATAACGCTCTGATCATAGTCAGACCAACATTGCTACGACCCGTATTCGCACCGACAC,-4.04 ± 0.11
9,ACATTTGTTGATACAACCATAAAATGATAATTACACCCATAAATACATAATTATCACACCCATAAATTGATATTGCCTCTGATCATAGTCAGACCAACATTGCTACGACCCGTATTCGCACCGACAC,-0.763 ± 0.18
10,ACATTTGTTGATACAACCATAAAATGATAATTACTCTGATCATAGTCAGCACCCATAAATTGATAATTATCACACCCATAAATTGATATTGCACCAACATTGCTACGACCCGTATTCGCACCGACAC,-4.51 ± 0.36
11,ACATTTGTTGATACAACCATAAAATGATAATTACACCCATAAATTGATAATTATCACACCCATAAATTGATATTGCCTCTGATAACTTGGTATAGCATACATTATACGAACGGTATCGCACCGACAC,-0.811 ± 0.36
12,ACATTTGTTGATACAACCATATATTGATATCTCCAACCATAAGTTGATATTTTTCACACCCATAAATTGATAATTACTCTGATCATAGTCAGACCAACATTGCTACGACCCGTATTCGCACCGACAC,-0.491 ± 0.17
13,ACATTTGTTGATACACCCATAAATTGATATTGCCAACCATATATTGATATCTCTCACACCCATAAATTGATAATTACTCTGATCATAGTCAGACCAACATTGCTACGACCCGTATTCGCACCGACAC,-1.1 ± 0.15
14,ACATTGGTTCATACAACCATAAAATGATAATTACACCCATAAATTCATCATTATCACACCCAATTTAACTATAACGCTCTGATCATAGTCAGACCAACATTGCTACGACCCGTATTCGCACCGACAC,-7.13 ± 0.28
15,ACATTTGTTGATACAACCATAAAATGATAATTAATAATTATTTATAATCAGCAACTTAACACCCATAAATTGATAATTATCAACAAACGCCCGGTCGCGGTACTCTGATCATAGTCAGACCAACATT,-3.404 ± 0.015
16,ACATTTGTTGATACAACCCTAAAATGATAATTACACCCATAAATGGATCATTATCACACCCAATTTAACTATAACGCTCTGATCATAGTCAGACCAACATTGCTACGACCCGTATTCGCACCGACAC,-3.87 ± 0.32
